Experimental data from patent US20010052137A1, “Axin domain-like polypeptide inhibitors of glycogen synthase kinase 3 beta activity and activators of wnt signaling” (Trustees of the University of Pennsylvania, priority 2000, published 2001).

What was measured:
[1] = molecular target: T1, carboxyl-terminal fragment of Xenopus frizzled 7 (Xenopus laevis, UniProt Q9PUK8); test: Yeast two hybrid assay, interaction with frizzled 7 fragment; assay type: binding; conditions: beta-galactosidase filter assay in S. cerevisiae
T1 sequence (Q9PUK8 525-549 limits assumed): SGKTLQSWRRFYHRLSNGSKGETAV
Excerpt: (§1) FL Xaxin was cloned in frame with the GAL4 DNA binding domain (BD) in plasmid pAS2-1 (Clontech) to yield BD plasmid. Expression of BD plasmid yielded a Xaxin-GAL4 fusion protein. FL Xaxin, deltaDIX Xaxin, and a fragment (designated “AID”) encoding amino acid residues 489-777 of Xaxin were cloned in frame with the GAL4 transcriptional activation domain (AD) in the vector pACT2 to yield AD plasmids. Yeast were transformed with BD and AD plasmids using previously described protocols (Clontech, Palo Alto, Calif.). Transformed colonies were selected and assayed for beta-galactosidase activity in order to detect interacting proteins. In addition, three Xenopus axin partial length cDNAs (designated Y2H 2, Y2H 6, Y2H 7; all in plasmid pACT2) isolated from a previous yeast two hybrid screen (Hedgepeth et al., 1999, Mech. Develop. 80:147-151) were analyzed. Purification of GID
(§2) Using the yeast two hybrid assay, the ability of axin to bind with itself, with other members of the wnt pathway, or with the G(alpha)q subunit of heterotrimeric G-proteins, was investigated. […]
(§3) Saccharomyces cerevisiae cells were transformed with the bait vector and with one of the target vectors. Interaction was assessed using a filter assay to detect beta-galactosidase activity, as described (Fields et al., 1989, Nature 340:245-247; Harper et al., 1993, Cell 75:805-816). […]

GSK-3 beta = test: Yeast two hybrid assay, interaction with GSK-3 beta; assay type: binding; conditions: beta-galactosidase filter assay in S. cerevisiae
Excerpt: as §1, §2, §3

[2] = test system: GSK-3 beta protein lacking amino-terminal or carboxyl-terminal residues; test: Binding of full length axin to truncated GSK-3 beta; conditions: GSK-3 beta lacking as many as 62 amino-terminal or 132 carboxyl-terminal residues
axin = molecular target: T2, axin (Xenopus laevis, UniProt Q9YGY0); test: Co-immunoprecipitation of myc-tagged and HA-tagged axin in Xenopus embryos; assay type: binding
T2 construct: Full length (FL) Xaxin was assembled into plasmid CS2MT using restriction fragments of partial cDNA clones; expressed in transfected cells; host or cells: Xenopus embryos (fertilized eggs injected with mRNA, harvested at stage 8)

[3] = test system: carboxyl-terminal fragment of Xenopus frizzled 3; test: Yeast two hybrid assay, interaction with frizzled 3 fragment; assay type: binding; conditions: beta-galactosidase filter assay in S. cerevisiae
Excerpt: as §1, §2, §3

beta-catenin = beta-catenin protein accumulation in Xenopus oocytes (immunoblot); assay type: cell-based; conditions: construct mRNA expressed in Xenopus oocytes
Description: FIG. 2A is an image of an immunoblot of Xenopus cytoplasmic extracts obtained from Xenopus embryos in which beta-catenin was expressed, using an antibody which binds specifically with beta-catenin (described in McCrea et al., 1993, J. Cell. Biol. 123:477-84). The embryo corresponding to lane 2 was incubated in the presence of 20 millimolar LiCI. Extracts corresponding to lanes 3-5, 7, and 8 were obtained from embryos in which full-length (lane 8) Xaxin or the C-term (lane 3), GID1 (“GID”; lanes 4 and 7), or N-term (lane 5) fragments of Xaxin were expressed.
Although endogenous GSK-3 beta is not present at sufficient levels to detect using the tau assay, inhibition of GSK-3 beta is known to cause stabilization of cytoplasmic beta-catenin (Cadigan et al., 1997, Genes Dev. 11:3286-3305; Miller et al., 1996, Genes Develop. 10:2527-2539), and this serves as a widely used assay for downstream activation of wnt signaling. Inhibition of endogenous GSK-3 beta activity also causes stabilization of beta-catenin in Xenopus embryos and oocytes (Hedgepeth et al., 1997, Develop. Biol. 185:82-91; Yost et al., 1998, Cell 93:1031-1041; Yost et al., 1996, Genes Develop. 10:1443-1454). For this reason, levels of beta-catenin protein were assessed in Xenopus oocytes which had been injected either with full length Xaxin mRNA or with mRNA encoding one of the amino-terminal, GID, or carboxyl-terminal domains of Xaxin.

B1: full length Xaxin: full length Xenopus axin, amino acid residues 1-842 (SEQ ID NO: 8) (protein, listed as Xenopus laevis)
chain: MSVKGKGFPLDLGGSFTEDAPRPPVPGEEGELITTDQRPFSHTYYSLKNDGIKNETSTATPRRPDLDLGYEPEGSASPTPPYLKWAESLHSLLDDQDGIHLFRTFLQQENCADLLDFWFACSGFRKLEPNDSKVEKRLKLAKAIYKKYVLDSNGIVSRQIKPATKSFIKDCVLRQQIDPAMFDQAQMEIQSMMEDNTYPVFLKSDIYLEYTTIGGESPKNYSDQSSGSGTGKGPSGYLPTLNEDEEWRCDQGGEHERERECIPSSLFSQKLALDSSSHCAGSNRRLSDGREFRPGTWREPVNPYYVNTGYAGAPVTSANDSEQQSMSSDADTMSLTDSSVDGIPPYRLRKHYRREMQESANANGRGPLPHIPRTYHMPKDIHVDPEKFAAELISRLEGVLRDREAEQKLEERLKRVRAEEEGDDGDVSSGPSVISHKLPSGPPMHHFNSRYSETGCVGMQIRDAHEENPESILDEHVQRVMKTPGCQSPGTGRHSPKSRSPDGHLSKTLPGSLGTMQTGHGKHSSKSTAKVDSGNLHHHKHVYHHVHHHGGVKPKEQIDGESTQRVQTNFPWNVESHNYATKSRNYAESMGMAPNPMDSLAYSGKVSMLSKRNAKKADLGKSESASHEMPVVPEDSERHQKILQWIMEGEKEIIRHKKSNHSSSSAKKQPPTELARPLSIERPGAVHPWVSAQLRNVVQPSHPFIQDPTMPPNPAPNPLTQLVSKPGARLEEEEKKAAKMPQKQRLKPQKKNVSAPSQPCDNIVVAYYFCGEPIPYRTMVKGRVVTLGQFKELLTKKGNYRYYFKKVSDEFDCGVVFEEVREDDMILPIYEEKIIGQVEKID
[1]
  interaction with carboxyl-terminal fragment of Xenopus frizzled 7: did not interact
GSK-3 beta
  interaction with GSK-3 beta: interacted strongly
[2]
  binding with truncated GSK-3 beta: able to bind
axin
  axin self-interaction (co-immunoprecipitation): interacts with itself
[3]
  interaction with carboxyl-terminal fragment of Xenopus frizzled 3: did not interact
beta-catenin
  accumulation of beta-catenin: not observed
